Each block holds one binder with its values, some of them ahead of it.
What was measured:
P11A-bS = biological target: T1, P11A-bS; assay: two-hybrid library CCNG1;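 also: natural log of median RNA to DNA barcode read ratio; higher means stronger binding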
T1 chain: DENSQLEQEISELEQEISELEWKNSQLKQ

P7A-bS = biological target: T2, P7A-bS; assay: two-hybrid library CCNG1;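 also: natural log of median RNA to DNA barcode read ratio; higher means stronger binding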
T2 chain: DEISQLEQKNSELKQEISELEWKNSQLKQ

P8A-bS = biological target: T3, P8A-bS; assay: two-hybrid library CCNG1;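 also: natural log of median RNA to DNA barcode read ratio; higher means stronger binding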
T3 chain: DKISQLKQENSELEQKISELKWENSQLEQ

P9A-bS = biological target: T4, P9A-bS; assay: two-hybrid library CCNG1;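 also: natural log of median RNA to DNA barcode read ratio; higher means stronger binding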
T4 chain: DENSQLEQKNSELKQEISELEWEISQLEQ

P12A-bS = biological target: T5, P12A-bS; assay: two-hybrid library CCNG1;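 also: natural log of median RNA to DNA barcode read ratio; higher means stronger binding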
T5 chain: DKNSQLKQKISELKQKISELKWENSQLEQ

P4A-bS = biological target: T6, P4A-bS; assay: two-hybrid library CCNG1;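 also: natural log of median RNA to DNA barcode read ratio; higher means stronger binding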
T6 chain: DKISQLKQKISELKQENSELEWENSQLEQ

P5A-bS = biological target: T7, P5A-bS; assay: two-hybrid library CCNG1
T7 chain: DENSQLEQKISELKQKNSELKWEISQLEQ

P3A-bS = biological target: T8, P3A-bS; assay: two-hybrid library CCNG1
T8 chain: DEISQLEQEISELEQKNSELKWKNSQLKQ

P2A-bS = biological target: T9, P2A-bS; assay: two-hybrid library CCNG1
T9 chain: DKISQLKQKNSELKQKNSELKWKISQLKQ

P1A-bS = biological target: T10, P1A-bS; assay: two-hybrid library CCNG1
T10 chain: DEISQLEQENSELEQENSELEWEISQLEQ

P6A-bS = biological target: T11, P6A-bS; assay: two-hybrid library CCNG1
T11 chain: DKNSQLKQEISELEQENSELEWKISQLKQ

4H906-bN = biological target: T12, 4H906-bN; assay: two-hybrid library CCNG1
T12 chain: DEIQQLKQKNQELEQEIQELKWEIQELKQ

4H1393-bN = biological target: T13, 4H1393-bN; assay: two-hybrid library CCNG1
T13 chain: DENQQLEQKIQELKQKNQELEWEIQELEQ

4H3817-bN = biological target: T14, 4H3817-bN; assay: two-hybrid library CCNG1
T14 chain: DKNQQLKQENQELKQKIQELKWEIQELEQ

4H3172-bN = biological target: T15, 4H3172-bN; assay: two-hybrid library CCNG1
T15 chain: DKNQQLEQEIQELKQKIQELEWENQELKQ

4H3631-bN = biological target: T16, 4H3631-bN; assay: two-hybrid library CCNG1
T16 chain: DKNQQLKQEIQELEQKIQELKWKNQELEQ

4H850-bN = biological target: T17, 4H850-bN; assay: two-hybrid library CCNG1
T17 chain: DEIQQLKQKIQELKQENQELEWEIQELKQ

4H3414-bN = biological target: T18, 4H3414-bN; assay: two-hybrid library CCNG1
T18 chain: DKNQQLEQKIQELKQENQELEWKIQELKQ

4H3129-bN = biological target: T19, 4H3129-bN; assay: two-hybrid library CCNG1
T19 chain: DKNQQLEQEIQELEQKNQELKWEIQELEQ

4H1359-bN = biological target: T20, 4H1359-bN; assay: two-hybrid library CCNG1
T20 chain: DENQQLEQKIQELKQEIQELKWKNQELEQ

4H1629-bN = biological target: T21, 4H1629-bN; assay: two-hybrid library CCNG1
T21 chain: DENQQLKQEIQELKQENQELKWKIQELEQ

4H1449-bN = biological target: T22, 4H1449-bN; assay: two-hybrid library CCNG1
T22 chain: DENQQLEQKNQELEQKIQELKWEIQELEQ

4H619-bN = biological target: T23, 4H619-bN; assay: two-hybrid library CCNG1
T23 chain: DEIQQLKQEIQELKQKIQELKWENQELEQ

4H56-bN = biological target: T24, 4H56-bN; assay: two-hybrid library CCNG1
T24 chain: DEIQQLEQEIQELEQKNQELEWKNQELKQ

4H570-bN = biological target: T25, 4H570-bN; assay: two-hybrid library CCNG1
T25 chain: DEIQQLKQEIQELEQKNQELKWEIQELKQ

4H1710-bN = biological target: T26, 4H1710-bN; assay: two-hybrid library CCNG1
T26 chain: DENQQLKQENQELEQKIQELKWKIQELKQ

4H3974-bN = biological target: T27, 4H3974-bN; assay: two-hybrid library CCNG1
T27 chain: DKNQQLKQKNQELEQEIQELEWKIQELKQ

4H3638-bN = biological target: T28, 4H3638-bN; assay: two-hybrid library CCNG1
T28 chain: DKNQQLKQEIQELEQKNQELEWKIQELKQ

4H1985-bN = biological target: T29, 4H1985-bN; assay: two-hybrid library CCNG1
T29 chain: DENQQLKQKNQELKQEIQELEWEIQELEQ

4H1804-bN = biological target: T30, 4H1804-bN; assay: two-hybrid library CCNG1
T30 chain: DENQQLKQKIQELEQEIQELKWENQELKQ

4H584-bN = biological target: T31, 4H584-bN; assay: two-hybrid library CCNG1
T31 chain: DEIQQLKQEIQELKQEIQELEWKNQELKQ

4H2931-AA = biological target: T32, 4H2931-AA; assay: two-hybrid library CCmax; settings: mean of both orientations
T32 chain: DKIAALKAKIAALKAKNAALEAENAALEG

4H406-AA = biological target: T33, 4H406-AA; assay: two-hybrid library CCmax; settings: mean of both orientations
T33 chain: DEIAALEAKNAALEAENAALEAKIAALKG

4H249-AA = biological target: T34, 4H249-AA; assay: two-hybrid library CCmax; settings: mean of both orientations
T34 chain: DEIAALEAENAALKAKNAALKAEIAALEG

4H175-AA = biological target: T35, 4H175-AA; assay: two-hybrid library CCmax; settings: mean of both orientations
T35 chain: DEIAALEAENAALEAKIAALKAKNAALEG

4H1765-AA = biological target: T36, 4H1765-AA; assay: two-hybrid library CCmax; settings: mean of both orientations
T36 chain: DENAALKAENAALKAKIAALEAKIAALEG

4H347-AA = biological target: T37, 4H347-AA; assay: two-hybrid library CCmax; settings: mean of both orientations
T37 chain: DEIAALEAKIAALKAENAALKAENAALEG

4H2592-AA = biological target: T38, 4H2592-AA; assay: two-hybrid library CCmax; settings: mean of both orientations
T38 chain: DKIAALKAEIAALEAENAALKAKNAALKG

4H1828-AA = biological target: T39, 4H1828-AA; assay: two-hybrid library CCmax; settings: mean of both orientations
T39 chain: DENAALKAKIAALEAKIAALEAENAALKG

4H3073-AA = biological target: T40, 4H3073-AA; assay: two-hybrid library CCmax; settings: mean of both orientations
T40 chain: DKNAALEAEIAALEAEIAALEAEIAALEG

4H56-AA = biological target: T41, 4H56-AA; assay: two-hybrid library CCmax; settings: mean of both orientations
T41 chain: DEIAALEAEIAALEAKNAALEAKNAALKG

4H2466-AA = biological target: T42, 4H2466-AA; assay: two-hybrid library CCmax; settings: mean of both orientations
T42 chain: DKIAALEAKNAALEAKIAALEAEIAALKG

4H1821-AA = biological target: T43, 4H1821-AA; assay: two-hybrid library CCmax
T43 chain: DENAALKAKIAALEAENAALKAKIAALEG

4H2330-AA = biological target: T44, 4H2330-AA; assay: two-hybrid library CCmax; settings: mean of both orientations
T44 chain: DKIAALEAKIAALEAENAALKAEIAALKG

4H_APH = biological target: T45, 4H_APH; assay: two-hybrid library CCmax; settings: mean of both orientations
T45 chain: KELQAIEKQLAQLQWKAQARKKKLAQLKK

4H2124-AA = biological target: T46, 4H2124-AA; assay: two-hybrid library CCmax; settings: mean of both orientations
T46 chain: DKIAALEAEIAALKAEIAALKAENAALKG

4H2343-AA = biological target: T47, 4H2343-AA; assay: two-hybrid library CCmax; settings: mean of both orientations
T47 chain: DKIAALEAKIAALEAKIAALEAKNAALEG

4H_BCR = biological target: T48, 4H_BCR; assay: two-hybrid library CCmax; settings: mean of both orientations
T48 chain: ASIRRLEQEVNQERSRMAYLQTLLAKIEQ

4H452-AA = biological target: T49, 4H452-AA; assay: two-hybrid library CCmax; settings: mean of both orientations
T49 chain: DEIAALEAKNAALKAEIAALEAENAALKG

GCN2_T = assay: two-hybrid library CCmax
4H1930-AA = biological target: T50, 4H1930-AA; assay: two-hybrid library CCmax; settings: mean of both orientations
T50 chain: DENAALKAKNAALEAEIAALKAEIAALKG

4H2253-AA = biological target: T51, 4H2253-AA; assay: two-hybrid library CCmax; settings: mean of both orientations
T51 chain: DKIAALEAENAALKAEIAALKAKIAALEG

4H2774-AA = biological target: T52, 4H2774-AA; assay: two-hybrid library CCmax; settings: mean of both orientations
T52 chain: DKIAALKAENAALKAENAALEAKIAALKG

4H3438-AA = biological target: T53, 4H3438-AA; assay: two-hybrid library CCmax
T53 chain: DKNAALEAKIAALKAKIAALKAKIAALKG

4H2165-AA = biological target: T54, 4H2165-AA; assay: two-hybrid library CCmax; settings: mean of both orientations
T54 chain: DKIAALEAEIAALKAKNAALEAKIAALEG

4H3001-AA = biological target: T55, 4H3001-AA; assay: two-hybrid library CCmax; settings: mean of both orientations
T55 chain: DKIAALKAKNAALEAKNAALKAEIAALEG

4H3015-AA = biological target: T56, 4H3015-AA; assay: two-hybrid library CCmax; settings: mean of both orientations
T56 chain: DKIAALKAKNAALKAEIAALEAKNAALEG

4H1650-AA = biological target: T57, 4H1650-AA; assay: two-hybrid library CCmax
T57 chain: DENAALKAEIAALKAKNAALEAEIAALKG

4H2732-AA = biological target: T58, 4H2732-AA; assay: two-hybrid library CCmax; settings: mean of both orientations
T58 chain: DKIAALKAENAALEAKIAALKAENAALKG

4H_GCN4 = assay: two-hybrid library CCmax
Chain of 4H_GCN4 (chain, as listed by the source): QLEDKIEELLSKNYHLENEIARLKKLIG

interaction score (P11A-bS): -0.865
interaction score (P7A-bS): -1.25
interaction score (P8A-bS): 0.714
interaction score (P9A-bS): -0.134
interaction score (P12A-bS): 2.41
interaction score (P4A-bS): 0.142
interaction score (P5A-bS): -0.458
interaction score (P3A-bS): -0.458
interaction score (P2A-bS): -0.288
interaction score (P1A-bS): 0.728
interaction score (P6A-bS): 0.727
Binder: DENSQLEQEISELEQEISELEWKNSQLKQ [P11A-bS]

interaction score (P7A-bS): -0.873
interaction score (P8A-bS): -1.07
interaction score (P9A-bS): -0.676
interaction score (P12A-bS): -1.48
interaction score (P4A-bS): -1.12
interaction score (P5A-bS): -2.21
interaction score (P3A-bS): -2.43
interaction score (P2A-bS): -1.69
interaction score (P1A-bS): -0.648
interaction score (P6A-bS): -0.87
Binder: DKNSQLKQKISELKQKISELKWENSQLEQ [P12A-bS]

Second part, the binder before the results:

Binder: DKNSQLKQENSELEQKISELKWKISQLKQ [P10A-bS]
interaction score (P11A-bS): -0.138
interaction score (P7A-bS): -0.464
interaction score (P8A-bS): -0.395
interaction score (P12A-bS): -0.0445
interaction score (P4A-bS): -0.106
interaction score (P5A-bS): -1.76
interaction score (P3A-bS): -0.693
interaction score (P2A-bS): -0.0157
interaction score (P1A-bS): -2.5
interaction score (P6A-bS): -1.53

Binder: DENQQLEQKIQELKQEIQELKWKNQELEQ [4H1359-bN]
interaction score (4H906-bN): -1.22
interaction score (4H1393-bN): -0.209
interaction score (4H3817-bN): -1.14
interaction score (4H3172-bN): 0.294
interaction score (4H3631-bN): 0.911
interaction score (4H850-bN): -0.294
interaction score (4H3414-bN): -0.131
interaction score (4H3129-bN): -0.57
interaction score (4H1359-bN): -0.688
interaction score (4H1629-bN): -1.24
interaction score (4H1449-bN): -0.317
interaction score (4H619-bN): -1.38
interaction score (4H56-bN): -1.25
interaction score (4H570-bN): -0.803
interaction score (4H1710-bN): -0.607
interaction score (4H3974-bN): 1.47
interaction score (4H3638-bN): -1.64
interaction score (4H1985-bN): -0.294
interaction score (4H1804-bN): 0.796
interaction score (4H584-bN): -0.701

Binder: DENAALKAEIAALKAKNAALEAEIAALKG [4H1650-AA]
interaction score (4H2931-AA): -1.59
interaction score (4H406-AA): -1.61
interaction score (4H249-AA): -1.71
interaction score (4H175-AA): -1.43
interaction score (4H1765-AA): -1.53
interaction score (4H347-AA): -2.36
interaction score (4H2592-AA): -1.61
interaction score (4H1828-AA): -1.48
interaction score (4H3073-AA): -1.16
interaction score (4H56-AA): -1.74
interaction score (4H2466-AA): -1.67
interaction score (4H1821-AA): -1.25
interaction score (4H2330-AA): -1.54
interaction score (4H_APH): -1.42
interaction score (4H2124-AA): -1.42
interaction score (4H2343-AA): -1.44
interaction score (4H_BCR): -1.36
interaction score (4H452-AA): -1.34
interaction score (GCN2_T): -0.999
interaction score (4H1930-AA): -1.42
interaction score (4H2253-AA): -1.47
interaction score (4H2774-AA): -1.48
interaction score (4H3438-AA): -1.13
interaction score (4H2165-AA): -1.3
interaction score (4H3001-AA): -1.67
interaction score (4H3015-AA): -1.53
interaction score (4H1650-AA): 1.93
interaction score (4H2732-AA): -0.897
interaction score (4H_GCN4): -1.9

Source: article PMC10397247
